From patent publication US20240209100A1 (DIAGONAL THERAPEUTICS, published 2024)

What was measured:
human IL-18Rβ = molecular target: T1, human IL-18Rβ (human, UniProt O95256 20-356, limits assumed); assay: SPR (Carterra LSA), antibody captured on anti-human IgG-Fc, monomeric antigen as analyte, 25 C
T1 construct: Monomeric antigen injected in SPR; also called IL-18R beta; IL-18Rb
T1 sequence: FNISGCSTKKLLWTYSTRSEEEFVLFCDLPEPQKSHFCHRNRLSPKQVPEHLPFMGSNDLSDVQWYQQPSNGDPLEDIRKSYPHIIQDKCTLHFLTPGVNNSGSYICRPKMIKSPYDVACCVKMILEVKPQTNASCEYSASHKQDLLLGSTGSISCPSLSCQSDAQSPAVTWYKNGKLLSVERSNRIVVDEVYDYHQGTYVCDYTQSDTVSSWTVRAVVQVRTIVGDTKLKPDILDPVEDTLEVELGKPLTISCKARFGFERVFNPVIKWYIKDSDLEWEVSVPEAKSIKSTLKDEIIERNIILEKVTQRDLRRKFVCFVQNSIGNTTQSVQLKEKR
Description: (§1) SPR experiments were performed using Carterra LSA equipped with an HC30M chip (Carterra-Bio). Binding assays were carried out at 25° C. with HBSTE (10 mM HEPES ph7.4, 150 mM NaCl, 3 mM EDTA, 0.05% Tween-20) with 0.5 g/L BSA. A density of anti-human IgG-Fc capture lawn was established on an HC30M chip using amine coupling. […] Coupling of goat anti-human IgG (H+L) multi-species SP ads-UNLB (Southern Biotech, 2087-01) with standard immobilization was done for 15 minutes in 10 mM sodium acetate pH 4.5 and quenched using 1M ethanolamine HCl PH8.5. The anti-human IgG-Fc capture surface was then used to capture a panel of antibodies at 20 μg/mL. Monomeric antigen for human IL-18Rα, human IL-18Rβ, cynomolgus IL-18Rα, or rhesus IL-18Rβ targeted by the antibodies was injected over the captured antibody array at 6 concentrations in 4-fold dilution series starting at 500 nM. Binding data was referenced and blanked from a buffer injected, then globally fit to a 1:1 Langmuir binding model for estimation of ka, kd, and KD using Carterra Kinetics Software.

[1] = molecular target: T2, IL-18 receptor (IL-18Rα/IL-18Rβ) overexpressed on HEK-Blue IL-18 cells (Homo sapiens (Human), UniProt Q13478 19-541; O95256 20-599); assay: cell-based or functional assay
T2 sequence 1: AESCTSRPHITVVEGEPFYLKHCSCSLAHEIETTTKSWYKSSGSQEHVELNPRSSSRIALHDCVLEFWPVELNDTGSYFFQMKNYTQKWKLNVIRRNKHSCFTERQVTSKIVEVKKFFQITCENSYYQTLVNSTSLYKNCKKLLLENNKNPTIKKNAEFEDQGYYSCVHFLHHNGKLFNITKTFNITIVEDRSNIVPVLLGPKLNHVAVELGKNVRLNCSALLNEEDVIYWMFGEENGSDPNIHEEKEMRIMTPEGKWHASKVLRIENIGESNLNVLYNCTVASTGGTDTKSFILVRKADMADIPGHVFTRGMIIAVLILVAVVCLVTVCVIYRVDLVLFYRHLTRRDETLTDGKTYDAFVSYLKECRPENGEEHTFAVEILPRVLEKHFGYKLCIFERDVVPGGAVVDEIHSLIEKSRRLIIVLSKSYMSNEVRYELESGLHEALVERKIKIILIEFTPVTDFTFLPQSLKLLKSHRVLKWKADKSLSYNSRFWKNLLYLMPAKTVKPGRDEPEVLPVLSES
T2 sequence 2: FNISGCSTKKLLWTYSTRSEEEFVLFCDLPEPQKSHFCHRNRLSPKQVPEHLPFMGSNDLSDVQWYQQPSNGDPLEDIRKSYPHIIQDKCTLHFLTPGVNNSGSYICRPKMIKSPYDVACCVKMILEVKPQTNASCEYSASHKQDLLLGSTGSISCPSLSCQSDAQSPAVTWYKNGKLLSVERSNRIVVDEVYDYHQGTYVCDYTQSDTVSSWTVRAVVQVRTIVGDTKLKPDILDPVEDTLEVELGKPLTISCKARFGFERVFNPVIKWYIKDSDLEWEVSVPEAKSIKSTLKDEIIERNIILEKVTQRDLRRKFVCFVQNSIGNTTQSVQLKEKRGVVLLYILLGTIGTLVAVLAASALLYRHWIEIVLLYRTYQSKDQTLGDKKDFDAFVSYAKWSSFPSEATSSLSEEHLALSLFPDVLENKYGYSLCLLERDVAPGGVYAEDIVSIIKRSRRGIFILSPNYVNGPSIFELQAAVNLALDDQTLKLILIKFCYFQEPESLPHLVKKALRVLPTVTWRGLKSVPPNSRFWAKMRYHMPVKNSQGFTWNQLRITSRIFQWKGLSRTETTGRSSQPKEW

[2] = molecular target: T2, IL-18 receptor (IL-18Rα/IL-18Rβ) …; assay: cell-based or functional assay; remark: listed apart in the source
human IL-18Rα = molecular target: T3, human IL-18Rα (human, UniProt Q13478 19-329, limits assumed); assay: SPR (Carterra LSA), antibody captured on anti-human IgG-Fc, monomeric antigen as analyte, 25 C
T3 construct: Monomeric antigen injected in SPR; also called huIL18Ra; IL-18R alpha
T3 sequence: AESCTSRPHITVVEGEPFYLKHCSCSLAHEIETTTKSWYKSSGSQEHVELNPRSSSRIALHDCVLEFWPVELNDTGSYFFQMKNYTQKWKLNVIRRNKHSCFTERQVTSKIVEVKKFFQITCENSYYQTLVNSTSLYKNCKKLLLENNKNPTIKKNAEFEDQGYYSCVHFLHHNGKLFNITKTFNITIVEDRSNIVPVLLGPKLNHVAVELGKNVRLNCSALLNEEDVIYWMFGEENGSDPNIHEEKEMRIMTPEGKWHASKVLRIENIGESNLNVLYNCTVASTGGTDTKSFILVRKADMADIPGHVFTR
Description: as §1

cynomolgus IL-18Rα = molecular target: T4, cynomolgus IL-18Rα (cynomolgus, UniProt A0A2K5V3J9 19-328); assay: as above
T4 construct: also called Cyno IL-18Rα; non-human primate IL-18Rα
T4 sequence: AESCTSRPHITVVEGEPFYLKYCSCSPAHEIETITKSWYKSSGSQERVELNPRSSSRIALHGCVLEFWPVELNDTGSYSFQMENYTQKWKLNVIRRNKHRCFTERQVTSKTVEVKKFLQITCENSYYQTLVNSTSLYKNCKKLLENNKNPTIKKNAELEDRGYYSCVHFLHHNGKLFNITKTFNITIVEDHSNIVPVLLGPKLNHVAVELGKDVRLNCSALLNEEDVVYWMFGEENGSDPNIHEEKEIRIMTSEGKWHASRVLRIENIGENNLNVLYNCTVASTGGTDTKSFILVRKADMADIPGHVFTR
Description: as §1

B1: VHH505 (VHH)
VHH: QLQLVESGGGLVQAGGSLRLSCAASRSITFSHNVMGWYRQAPGKQRELVASIGSGGSTNYVDSVKGRATISRDNAKKTVYLQMNSLKPEDTAVYYCGVVVGVYRGSLGQGTQVTVSS
notes: also called VHH505_beta
- Kd (human IL-18Rβ): 1.6 nM

B2: DGL173 (bispecific antibody)
heavy 1: QVQLVESGGGLVQAGGSLRLSCVASGTFFQIHVMGWYRQAPGKQRELVAFIINNGGTRYADSVKGRFTISRDYAKNTVYLQMNSLKPEDTAVYYCNTEGTYRGRYSTDNWGQGTQVTVSSGGGSQVQLVESGGGLVQAGGSLRLSCAASGRTFSKHAMGWFRQAPGKEREFVAAIDWSGGSTYYADSVKGRFTISRDNAKNTVYLQMDSLKPEDTAVYYCAADSYTDYAQLWLPELESEYDYWGQGTQVTVSSDKTHTCPPCPAPEAAGGPSVFLFPPKPKDTLMISRTPEVTCVVVDVSHEDPEVKFNWYVDGVEVHNAKTKPREEQYNSTYRVVSVLTVLHQDWLNGKEYKCKVSNKALPAPIEKTISKAKGQPREPQVCTLPPSRDELTKNQVSLSCAVKGFYPSDIAVEWESNGQPENNYKTTPPVLDSDGSFFLVSKLTVDKSRWQQGNVFSCSVMHEALHNHYTQKSLSLSPG
heavy 2: not shown
- HEK-Blue IL-18: Abs 405 [1]: 0.59 Abs
- HEK-Blue IL-18: Fold over Background [1]: 4.9 fold

B3: DGL174 (bispecific antibody)
heavy 1: EVQLVESGGGLVQAGGSLRLSCAASGSISSRDTMGWYRQAPGKQREMVAVISSSGNTNYADSVLGRFTISRDNAKNTVDLQMNSLKPEDTAIYKCYAHRTYGVDYWGKGTLVTVSSGGGSQVQLVESGGGLVQAGGSLRLSCAASGRTFSSYTMGWFRQAPGKEREFVAAISWSAGRTYYADSVKGRFTISRDNAKNTVYLQMNSLKPEDTAVYFCAAEEAPDWAPIDCSGYGCLSLYDYWGQGTQVTVSSDKTHTCPPCPAPEAAGGPSVFLFPPKPKDTLMISRTPEVTCVVVDVSHEDPEVKFNWYVDGVEVHNAKTKPREEQYNSTYRVVSVLTVLHQDWLNGKEYKCKVSNKALPAPIEKTISKAKGQPREPQVCTLPPSRDELTKNQVSLSCAVKGFYPSDIAVEWESNGQPENNYKTTPPVLDSDGSFFLVSKLTVDKSRWQQGNVFSCSVMHEALHNHYTQKSLSLSPG
heavy 2: not shown
- HEK-Blue IL-18: Abs 405 [1]: 1.14 Abs
- HEK-Blue IL-18: Fold over Background [1]: 9.5 fold

B4: DGL012 (bispecific antibody, human IgG1, kappa, L234A L235A)
heavy 1: EVQLVESGGGLVQAGGSLRLSCAASGRTFSDARMGWFRQAPGRERELIAFISWFGSNTNYGSSVKGRFTISRDNTKNTVYLQMNSLKLEDTAVYYCAACRQSICIDSAEYFDDWGQGTQVTVSSDKTHTCPPCPAPEAAGGPSVFLFPPKPKDTLMISRTPEVTCVVVDVSHEDPEVKFNWYVDGVEVHNAKTKPREEQYNSTYRVVSVLTVLHQDWLNGKEYKCKVSNKALPAPIEKTISKAKGQPREPQVCTLPPSRDELTKNQVSLSCAVKGFYPSDIAVEWESNGQPENNYKTTPPVLDSDGSFFLVSKLTVDKSRWQQGNVFSCSVMHEALHNHYTQKSLSLSPG
heavy 2: not shown
light: DIQMTQSPSSLSASVGDRVTITCQASESIDNWLAWYQQKPGQAPKLLIYSASNLASGVPSRFSGSGSGTDFTLTISSLQPEDFATYYCQSTFYGVNPVPNAFGQGTKVVIKRTVAAPSVFIFPPSDEQLKSGTASVVCLLNNFYPREAKVQWKVDNALQSGNSQESVTEQDSKDSTYSLSSTLTLSKADYEKHKVYACEVTHQGLSSPVTKSFNRGEC
- HEK-Blue IL-18: Emax (Abs at 630 nm) at 10^8 (average of two replicates) [2]: 0.28 Abs at 630 nm

B5: DGL020 (bispecific antibody, human IgG1, kappa, L234A L235A)
heavy 1: B4 heavy 1
heavy 2: not shown
light: DIQMTQSPSSLSASVGDRVTITCQATEDIESFLAWYQQKPGQAPKLLIYRASTLESGVPSRFSGSGSGTDFTLTISSLQPEDFATYYCQSTVYGVNFVANAFGGGTKVVIKRTVAAPSVFIFPPSDEQLKSGTASVVCLLNNFYPREAKVQWKVDNALQSGNSQESVTEQDSKDSTYSLSSTLTLSKADYEKHKVYACEVTHQGLSSPVTKSFNRGEC
- HEK-Blue IL-18: Emax (Abs at 630 nm) at 10^8 (average of two replicates) [2]: 0.37 Abs at 630 nm

B6: VHH285 (VHH)
VHH: QVQLVESGGGLVQAGGSLRLSCAASGRTFSKHAMGWFRQAPGKEREFVAAIDWSGGSTYYADSVKGRFTISRDNAKNTVYLQMDSLKPEDTAVYYCAADSYTDYAQLWLPELESEYDYWGQGTQVTVSS
notes: also called VHH285_alpha
- Kd (human IL-18Rα): 15 nM
- Kd (cynomolgus IL-18Rα): 14 nM

B7: DGL175 (bispecific antibody)
heavy 1: QLQLVESGGGLVQAGGSLRLSCAASRSITFSHNVMGWYRQAPGKQRELVASIGSGGSTNYVDSVKGRATISRDNAKKTVYLQMNSLKPEDTAVYYCGVVVGVYRGSLGQGTQVTVSSGGGSQVQLQESGGGLVQAGGSLRLSCQASGSIATINGMRWWRQAPGKERELVATINSGGSSNYADSVKGRFTISRDNASHTVSLQMNSLKPEDTAVYYCNLYVYSQFPPFSVDDYWGQGARVTVSSDKTHTCPPCPAPEAAGGPSVFLFPPKPKDTLMISRTPEVTCVVVDVSHEDPEVKFNWYVDGVEVHNAKTKPREEQYNSTYRVVSVLTVLHQDWLNGKEYKCKVSNKALPAPIEKTISKAKGQPREPQVCTLPPSRDELTKNQVSLSCAVKGFYPSDIAVEWESNGQPENNYKTTPPVLDSDGSFFLVSKLTVDKSRWQQGNVFSCSVMHEALHNHYTQKSLSLSPG
heavy 2: not shown
- HEK-Blue IL-18: Abs 405 [1]: 1.1 Abs
- HEK-Blue IL-18: Fold over Background [1]: 9.1 fold

B8: VHH363 (VHH)
VHH: QVQLVESGGGLVQAGGSLRLSCAASGRTFSSYTMGWFRQAPGKEREFVAAISWSAGRTYYADSVKGRFTISRDNAKNTVYLQMNSLKPEDTAVYFCAAEEAPDWAPIDCSGYGCLSLYDYWGQGTQVTVSS
notes: also called VHH363_alpha
- Kd (human IL-18Rα): 34 nM
- Kd (cynomolgus IL-18Rα): 95 nM
